Among the data in US20110059093A1 are Max O.D. Tau fragment binding values, retold here.

In this assay the target is T1, Tau fragment Ser-Ile-Asp-Met-Val-Asp-Ser-Pro-Gln-Leu-Ala-Thr-Leu-Ala-Asp (SEQ ID NO:10) (human).
T1 sequence (peptide, biotinylated): SIDMVDSPQLATLAD
The assay can be described thus: ELISA, biotinylated peptide on streptavidin plate, absorbance 405 nm-492 nm.

B1: Mab2.10.3 (anti-Tau pS422 antibody) (antibody, IgG1, V domains shown)
VH: EVQLVESGGDLVRPGGSLKLSCAASGFTFRTYGMSWVRQTADKRLEWVATISSGGTYTYYADNVRERFTISRDNARDTLYLQMSRLESDDTAMYYCTRRYGYDGGGSFDVWGAGTRVTVSS
VL: EIVMTQAAPSVPVTPGESASISCRSNKSLLHSNGNTYLCWFLQRPGQSPQLLIYRMSTLAPGVPDRFSGSGSGTAFTLRISRLEAEDVGVYYCMQHIEYPLTFGAGTKLELK
B1 came in with a Max O.D. Tau fragment binding of 30 mE.
